Test results as given in paper PMC6400067.

Target: phosphoenolpyruvate carboxylase (Ppc; cce_3822) (Cyanothece ATCC 51142 (endogenous in the cells))
Test: SEC

phosphoenolpyruvate carboxylase (Ppc; cce_3822) (enzyme)
Rapp (Mapp / Mmono): 4.6
